Common to all, as to assay: two-hybrid library CCmax;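 note: natural log of median RNA to DNA barcode read ratio; higher means stronger binding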
In one assay the target is T1, 4H390-AA.
T1 chain: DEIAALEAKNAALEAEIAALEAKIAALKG
Particulars: mean of both orientations.

A further assay has as its target T2, 4H662-AA.
T2 chain: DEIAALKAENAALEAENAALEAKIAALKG
Particulars: mean of both orientations.

For a further assay, the target named is T3, 4H2985-AA.
T3 chain: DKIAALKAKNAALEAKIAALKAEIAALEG
Particulars: mean of both orientations.

In the next assay the target is T4, 4H2758-AA.
T4 chain: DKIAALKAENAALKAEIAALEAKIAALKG
Particulars: mean of both orientations.

A further assay concerns the target T5, 4H2705-AA.
T5 chain: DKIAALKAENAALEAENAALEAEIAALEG
Particulars: mean of both orientations.

The next assay concerns the target T6, 4H3587-AA.
T6 chain: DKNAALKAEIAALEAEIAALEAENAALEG
Particulars: mean of both orientations.

The target in the next assay is T7, 4H3922-AA.
T7 chain: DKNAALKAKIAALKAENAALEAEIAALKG
Particulars: mean of both orientations.

For the next assay, the target named is T8, 4H688-AA.
T8 chain: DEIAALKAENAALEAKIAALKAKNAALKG
Particulars: mean of both orientations.

The target in the next assay is T9, 4H432-AA.
T9 chain: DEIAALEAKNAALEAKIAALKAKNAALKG
Particulars: mean of both orientations.

The next assay has as its target T10, 4H391-AA.
T10 chain: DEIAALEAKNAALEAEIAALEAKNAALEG
Particulars: mean of both orientations.

The target of the next assay is T11, 4H3121-AA.
T11 chain: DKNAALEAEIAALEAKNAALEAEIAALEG
Particulars: mean of both orientations.

A further assay concerns the target T12, 4H3628-AA.
T12 chain: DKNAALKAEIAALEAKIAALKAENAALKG
Particulars: mean of both orientations.

A further assay deals with T13, 4H1349-AA.
T13 chain: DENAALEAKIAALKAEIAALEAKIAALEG
The settings on record: mean of both orientations.

For the next assay, the target named is T14, 4H656-AA.
T14 chain: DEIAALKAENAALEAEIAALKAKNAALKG
Particulars: mean of both orientations.

For a further assay, the target named is T15, 4H2148-AA.
T15 chain: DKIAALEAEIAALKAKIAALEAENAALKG
Particulars: mean of both orientations.

The target of another assay is T16, APC4011-AA.
T16 chain: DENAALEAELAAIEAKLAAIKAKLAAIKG
The settings on record: mean of both orientations.

For a further assay, the target named is T17, 4H4001-AA.
T17 chain: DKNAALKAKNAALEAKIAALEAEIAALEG
Particulars: mean of both orientations.

In a further assay the target is T18, 4H3354-AA.
T18 chain: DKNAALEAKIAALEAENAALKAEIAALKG
Particulars: mean of both orientations.

The target in another assay is T19, APC8191-AA.
T19 chain: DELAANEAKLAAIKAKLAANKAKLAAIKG
Particulars: mean of both orientations.

In the next assay the target is T20, 4H883-AA.
T20 chain: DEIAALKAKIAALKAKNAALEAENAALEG

Another assay addresses T21, APC7099-AA.
T21 chain: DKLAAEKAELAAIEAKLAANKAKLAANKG
Particulars: mean of both orientations.

Another assay concerns the target T22, P6-AA-12HAA-Y.
T22 chain: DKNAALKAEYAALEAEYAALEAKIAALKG
The settings on record: mean of both orientations.

A further assay deals with T23, P6-AA-12HAA-L.
T23 chain: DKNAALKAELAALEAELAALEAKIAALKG
The settings on record: mean of both orientations.

For the next assay, the target named is T24, P6-AA-12HAA-D.
T24 chain: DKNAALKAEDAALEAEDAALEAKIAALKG
The settings on record: mean of both orientations.

The target of another assay is T25, 4H355-AA.
T25 chain: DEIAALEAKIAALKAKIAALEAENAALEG
Particulars: mean of both orientations.

The next assay has as its target T26, 4H3020-AA.
T26 chain: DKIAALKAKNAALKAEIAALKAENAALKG
The settings on record: mean of both orientations.

A further assay addresses T27, 4H2750-AA.
T27 chain: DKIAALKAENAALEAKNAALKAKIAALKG
The settings on record: mean of both orientations.

In the next assay the target is T28, 4H2721-AA.
T28 chain: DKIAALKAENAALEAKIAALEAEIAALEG
The settings on record: mean of both orientations.

A further assay addresses T29, 4H1446-AA.
T29 chain: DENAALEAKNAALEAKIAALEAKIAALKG
Particulars: mean of both orientations.

In the next assay the target is T30, P6-AA-1HAA-E.
T30 chain: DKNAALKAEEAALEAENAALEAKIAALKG
Particulars: mean of both orientations.

A further assay has as its target T31, zCON9_A.
T31 chain: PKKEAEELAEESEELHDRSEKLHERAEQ

A further assay concerns the target T32, 4H1636-AA.
T32 chain: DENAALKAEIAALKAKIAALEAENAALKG
The settings on record: mean of both orientations.

In another assay the target is T33, AP8-AA.
T33 chain: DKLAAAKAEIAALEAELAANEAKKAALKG
Particulars: mean of both orientations.

In another assay the target is T34, P12-AA.
T34 chain: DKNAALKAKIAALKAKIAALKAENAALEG
Particulars: mean of both orientations.

The target in a further assay is T35, AP6-AA.
T35 chain: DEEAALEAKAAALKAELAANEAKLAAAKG
Particulars: mean of both orientations.

A further assay has as its target T36, 4H2151-AA.
T36 chain: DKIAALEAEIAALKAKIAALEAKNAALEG
The settings on record: mean of both orientations.

For the next assay, the target named is T37, P5-AA-1HAA-E.
T37 chain: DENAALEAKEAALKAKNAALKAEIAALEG
Particulars: mean of both orientations.

Another assay deals with T38, P5-AA-12HGe-H.
T38 chain: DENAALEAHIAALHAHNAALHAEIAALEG
The settings on record: mean of both orientations.

Another assay deals with T39, P5-AA-1HAA-L.
T39 chain: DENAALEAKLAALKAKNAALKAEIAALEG
The settings on record: mean of both orientations.

In another assay the target is T40, P5-AA-1HAA-A.
T40 chain: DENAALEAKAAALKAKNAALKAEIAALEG
The settings on record: mean of both orientations.

In another assay the target is T41, P5-AA-1HAA-T.
T41 chain: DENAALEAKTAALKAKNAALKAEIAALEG

The target in another assay is T42, P5-AA-1HGe-Y.
T42 chain: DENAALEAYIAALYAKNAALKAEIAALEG
The settings on record: mean of both orientations.

Read-outs that look alike come from different tables or passages of the source.

Regarding DENAALEAKIAALKAEIAALEAKIAALKG [4H1350-AA], the interaction score with 4H390-AA was 0.523; with 4H662-AA it was -1.35; in the assay with 4H2985-AA, 0.636; with 4H2758-AA, -0.48; in the assay with 4H2705-AA it was -1.8; with 4H3587-AA, 1.39. The interaction score in the assay with 4H3922-AA is -0.898.
Turning to DEIAALEAENAALKAKNAALKAEIAALEG [4H249-AA], the interaction score was 0.32 with 4H688-AA and -1.72 with 4H432-AA.
For the molecule DENAALEAEIAALEAKIAALEAKNAALKG [4H1064-AA], the interaction score with 4H391-AA is -1.37; with 4H3121-AA it was -1.6; in the assay with 4H3628-AA, 1.07; in the assay with 4H1349-AA, 0.539; with 4H656-AA, -1.36.
Molecule DENAALKAEIAALKAENAALKAEIAALKG [4H1626-AA] displayed an interaction score with 4H688-AA of -1.19.
On to DENAALKAKIAALEAKNAALEAKIAALEG [4H1845-AA], for which the interaction score in the assay with 4H2148-AA was -1.61; with APC4011-AA, -1.65; in the assay with 4H4001-AA, -1.9; in the assay with 4H3354-AA, -1.37; with APC8191-AA it was -1.67; in the assay with 4H883-AA (mean of both orientations), -1.57. For the same molecule, the interaction score with APC7099-AA was -1.48.
DENAALEAKIAALKAKIAALKAEIAALEG [4H1385-AA]: the interaction score is 2.29 with P6-AA-12HAA-Y; -1.8 with 4H2705-AA; 1.58 in the assay with 4H3587-AA; 2.03 with P6-AA-12HAA-L; -1.1 with P6-AA-12HAA-D.
In the case of DENAALEAENAALKAKIAALKAEIAALEG [4H1257-AA], the interaction score is -1.88 in the assay with 4H355-AA; -1.1 with 4H3020-AA; 0.365 in the assay with 4H1349-AA; -1.22 with 4H2750-AA; -0.973 in the assay with 4H4001-AA; -1.6 with 4H3354-AA. The interaction score with 4H2721-AA was 1.02; with 4H1446-AA it was 0.0702; with 4H883-AA, -1.67.
As for DENAALEAKIAALKAKNAALKAEIAALEG [4H1401-AA], the interaction score with P6-AA-1HAA-E is 2.01; with zCON9_A, -1.95; in the assay with 4H1636-AA it was -1.81; in the assay with AP8-AA it was -0.198; in the assay with P12-AA, -1.92; with AP6-AA it was -1.73. In the assay with 4H2151-AA, this molecule yielded an interaction score of -1.5.
On to DENAALEAENAALEAEIAALEAEIAALEG [4H1153-AA], for which the interaction score with 4H1636-AA was -1.31; with 4H2151-AA it was -1.21.
For DKNAALKAEIAALEAENAALEAKIAALKG [4H3606-AA], the interaction score with P5-AA-1HAA-E was 1.24; with zCON9_A, -1.36; in the assay with P5-AA-12HGe-H, 1.86; in the assay with AP8-AA, -1.43; with P5-AA-1HAA-L, 2.39; in the assay with P5-AA-1HAA-A, 2.07. Also, the interaction score was -0.654 in the assay with P12-AA, 1.75 with P5-AA-1HAA-T, -0.593 in the assay with AP6-AA and 2.36 with P5-AA-1HGe-Y.
